Reference: the supplement of paper PMC10065799, “High-throughput profiling of sequence recognition by tyrosine kinases and SH2 domains using bacterial peptide display” (eLife, 2023)

biological target: Fes (UniProt P07332); test: phosphorylation enrichment, bacterial display (enrichment ratio); higher = better substrate or ligand; peptides without Tyr show the background
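Note: 11-residue human phosphosite peptides and single-mutation variants displayed on the E. coli surface, counted by deep sequencing, each peptide's frequency after selection divided by its frequency in the unselected input library; frequency after pTyr selection over input frequency; kinase dosed for 20-30% of maximal phosphorylation in three min.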

Fes, sequence (P07332 whole entry, looked up): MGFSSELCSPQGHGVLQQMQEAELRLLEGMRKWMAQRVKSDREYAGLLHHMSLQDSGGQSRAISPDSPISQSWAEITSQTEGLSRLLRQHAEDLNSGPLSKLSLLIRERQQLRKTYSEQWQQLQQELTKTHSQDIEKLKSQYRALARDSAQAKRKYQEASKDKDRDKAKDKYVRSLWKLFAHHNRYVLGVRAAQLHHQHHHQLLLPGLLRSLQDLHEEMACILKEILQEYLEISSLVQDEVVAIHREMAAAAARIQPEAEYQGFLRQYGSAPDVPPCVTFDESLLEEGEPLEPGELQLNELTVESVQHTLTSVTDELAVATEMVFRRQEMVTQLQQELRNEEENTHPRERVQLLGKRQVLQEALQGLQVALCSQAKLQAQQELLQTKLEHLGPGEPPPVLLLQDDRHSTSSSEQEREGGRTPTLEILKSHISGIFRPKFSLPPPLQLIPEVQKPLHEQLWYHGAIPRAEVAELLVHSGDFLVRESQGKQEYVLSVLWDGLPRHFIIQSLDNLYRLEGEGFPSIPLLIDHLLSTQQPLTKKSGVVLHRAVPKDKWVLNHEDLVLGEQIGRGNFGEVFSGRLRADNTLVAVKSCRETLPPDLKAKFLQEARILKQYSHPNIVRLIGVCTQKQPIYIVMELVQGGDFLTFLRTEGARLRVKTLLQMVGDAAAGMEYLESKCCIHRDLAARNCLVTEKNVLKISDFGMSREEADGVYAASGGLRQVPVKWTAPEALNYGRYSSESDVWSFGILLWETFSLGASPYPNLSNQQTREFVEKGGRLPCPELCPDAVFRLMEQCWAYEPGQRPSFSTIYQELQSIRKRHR

| Sequence | phosphorylation enrichment |
| --- | --- |
| MRALIYNSSTA [PLEKHA7_Y243] | 0.772 |
| ILTLKYPIELG [ACTA1_Y71_H75L] | 0.986 |
| QDEHGYIFRCF [HSPB1_Y133_S135F] | 2.15 |
| LSGFGYRLSDQ [PDCD6_Y124] | 0.977 |
| LEDDVYRKTCT [XPA_Y257_M256V] | 2.07 |
| RGNMFYENSFA [EGFR_Y113_YF] | 0.836 |
| CNPLRYPTIMI [OR6K6_Y160] | 0.962 |
| SLLTDYSPQLQ [OTC_Y345] | 0.796 |
| LIQRNYKLAAQ [ALPK2_Y1975] | 1.21 |
| ILTLKYPIEHG [ACTA1_Y71] | 0.78 |
| ESSKAYERALS [TTC37_Y1074] | 0.816 |
| CSSPTYRDCLQ [LARGE2_Y682_R677C] | 0.892 |
| YSMGCYEIYLG [HMGCL_Y198_S201Y] | 2.02 |
| QGIYGYHHYMQ [UFSP2_Y287] | 1.31 |
| KSPDSYQKILL [ATM_Y1415] | 0.801 |
| PRLMLYNPTTF [EGFR_Y270_P266R_YF] | 1.18 |
| RRVPVYGGRGA [QDPR_Y16_L14P] | 0.836 |
| TEQDPYNNIVR [MMUT_Y364] | 0.978 |
| SHTPSYCDESL [RITA1_Y109] | 0.831 |
| HYPDVYAREQL [ALX3_Y181] | 0.912 |
| VCHELYNAIRD [PBRM1_Y54_T56A] | 0.933 |
| KSSDVYVSFDC [SORL1_Y136_Y141C_YF] | 1.18 |
| KILPEYLSNWT [AIFM1_Y347] | 0.915 |
| TVQVAYFTMMM [SPATA17_Y83_YF] | 1.41 |
| IGNGFYFRVFS [MYBPC3_Y1136_YF] | 1.38 |
| EQQNMYRLKVL [ABCC6_Y372] | 0.706 |
| QRIYQYIRSRF [DYRK1B_Y273_Q275R] | 1.17 |
| YETSHYPASPD [CTNND2_Y1217] | 0.771 |
| APEVIYATPGA [ABLtide_2014] | 1.14 |

biological target: MERTK (UniProt Q12866); test: as above
Sequence (Q12866 whole entry, looked up): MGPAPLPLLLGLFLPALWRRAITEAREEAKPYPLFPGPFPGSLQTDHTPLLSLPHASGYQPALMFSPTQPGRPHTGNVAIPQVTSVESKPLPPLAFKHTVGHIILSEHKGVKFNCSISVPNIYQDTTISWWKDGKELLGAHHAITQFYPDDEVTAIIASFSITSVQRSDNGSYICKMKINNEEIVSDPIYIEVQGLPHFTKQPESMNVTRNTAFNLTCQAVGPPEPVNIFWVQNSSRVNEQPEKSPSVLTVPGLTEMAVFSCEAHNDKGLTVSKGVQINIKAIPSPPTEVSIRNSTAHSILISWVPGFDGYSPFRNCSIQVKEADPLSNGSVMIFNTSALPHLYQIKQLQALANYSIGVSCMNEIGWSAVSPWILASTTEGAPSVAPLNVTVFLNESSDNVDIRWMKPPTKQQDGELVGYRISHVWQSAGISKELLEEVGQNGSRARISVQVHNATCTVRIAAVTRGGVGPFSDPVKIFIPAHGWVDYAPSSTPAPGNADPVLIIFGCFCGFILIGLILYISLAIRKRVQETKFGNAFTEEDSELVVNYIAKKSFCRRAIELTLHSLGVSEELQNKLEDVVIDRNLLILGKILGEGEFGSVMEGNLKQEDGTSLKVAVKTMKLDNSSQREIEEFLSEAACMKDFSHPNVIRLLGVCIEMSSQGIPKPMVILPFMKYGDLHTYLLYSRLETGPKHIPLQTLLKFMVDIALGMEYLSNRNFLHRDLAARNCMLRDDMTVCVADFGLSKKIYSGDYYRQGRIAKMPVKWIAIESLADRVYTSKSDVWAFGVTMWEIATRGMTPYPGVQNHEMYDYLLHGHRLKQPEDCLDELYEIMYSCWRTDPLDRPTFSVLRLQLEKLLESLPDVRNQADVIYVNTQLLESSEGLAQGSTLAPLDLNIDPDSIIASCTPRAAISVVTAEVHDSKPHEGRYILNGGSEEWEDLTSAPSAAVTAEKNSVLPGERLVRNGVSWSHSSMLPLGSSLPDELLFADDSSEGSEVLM

| Sequence | phosphorylation enrichment |
| --- | --- |
| MRALIYNSSTA [PLEKHA7_Y243] | 0.465 |
| ILTLKYPIELG [ACTA1_Y71_H75L] | 0.352 |
| QDEHGYIFRCF [HSPB1_Y133_S135F] | 0.524 |
| LSGFGYRLSDQ [PDCD6_Y124] | 0.474 |
| LEDDVYRKTCT [XPA_Y257_M256V] | 0.864 |
| RGNMFYENSFA [EGFR_Y113_YF] | 0.727 |
| CNPLRYPTIMI [OR6K6_Y160] | 0.482 |
| SLLTDYSPQLQ [OTC_Y345] | 0.381 |
| LIQRNYKLAAQ [ALPK2_Y1975] | 0.72 |
| ILTLKYPIEHG [ACTA1_Y71] | 0.391 |
| ESSKAYERALS [TTC37_Y1074] | 0.417 |
| CSSPTYRDCLQ [LARGE2_Y682_R677C] | 0.37 |
| YSMGCYEIYLG [HMGCL_Y198_S201Y] | 4.69 |
| QGIYGYHHYMQ [UFSP2_Y287] | 10.4 |
| KSPDSYQKILL [ATM_Y1415] | 0.437 |
| PRLMLYNPTTF [EGFR_Y270_P266R_YF] | 0.703 |
| RRVPVYGGRGA [QDPR_Y16_L14P] | 0.779 |
| TEQDPYNNIVR [MMUT_Y364] | 0.451 |
| SHTPSYCDESL [RITA1_Y109] | 0.419 |
| HYPDVYAREQL [ALX3_Y181] | 0.494 |
| VCHELYNAIRD [PBRM1_Y54_T56A] | 0.43 |
| KSSDVYVSFDC [SORL1_Y136_Y141C_YF] | 0.803 |
| KILPEYLSNWT [AIFM1_Y347] | 0.509 |
| TVQVAYFTMMM [SPATA17_Y83_YF] | 0.441 |
| IGNGFYFRVFS [MYBPC3_Y1136_YF] | 0.374 |
| EQQNMYRLKVL [ABCC6_Y372] | 0.401 |
| QRIYQYIRSRF [DYRK1B_Y273_Q275R] | 1.01 |
| YETSHYPASPD [CTNND2_Y1217] | 0.42 |
| APEVIYATPGA [ABLtide_2014] | 8.2 |

system: Fer (mouse); test: as above

| Sequence | phosphorylation enrichment |
| --- | --- |
| MRALIYNSSTA [PLEKHA7_Y243] | 0.424 |
| ILTLKYPIELG [ACTA1_Y71_H75L] | 0.457 |
| QDEHGYIFRCF [HSPB1_Y133_S135F] | 0.793 |
| LSGFGYRLSDQ [PDCD6_Y124] | 0.449 |
| LEDDVYRKTCT [XPA_Y257_M256V] | 1.09 |
| RGNMFYENSFA [EGFR_Y113_YF] | 2.57 |
| CNPLRYPTIMI [OR6K6_Y160] | 0.419 |
| SLLTDYSPQLQ [OTC_Y345] | 0.453 |
| LIQRNYKLAAQ [ALPK2_Y1975] | 0.576 |
| ILTLKYPIEHG [ACTA1_Y71] | 0.391 |
| ESSKAYERALS [TTC37_Y1074] | 0.418 |
| CSSPTYRDCLQ [LARGE2_Y682_R677C] | 0.408 |
| YSMGCYEIYLG [HMGCL_Y198_S201Y] | 5.57 |
| QGIYGYHHYMQ [UFSP2_Y287] | 13.8 |
| KSPDSYQKILL [ATM_Y1415] | 0.393 |
| PRLMLYNPTTF [EGFR_Y270_P266R_YF] | 0.848 |
| RRVPVYGGRGA [QDPR_Y16_L14P] | 0.626 |
| TEQDPYNNIVR [MMUT_Y364] | 0.45 |
| SHTPSYCDESL [RITA1_Y109] | 0.505 |
| HYPDVYAREQL [ALX3_Y181] | 0.36 |
| VCHELYNAIRD [PBRM1_Y54_T56A] | 0.567 |
| KSSDVYVSFDC [SORL1_Y136_Y141C_YF] | 0.733 |
| KILPEYLSNWT [AIFM1_Y347] | 0.424 |
| TVQVAYFTMMM [SPATA17_Y83_YF] | 0.678 |
| IGNGFYFRVFS [MYBPC3_Y1136_YF] | 0.519 |
| EQQNMYRLKVL [ABCC6_Y372] | 0.488 |
| QRIYQYIRSRF [DYRK1B_Y273_Q275R] | 0.734 |
| YETSHYPASPD [CTNND2_Y1217] | 0.484 |
| APEVIYATPGA [ABLtide_2014] | 11.6 |

biological target: FGFR3 (UniProt P22607); test: as above
Sequence (P22607 whole entry, looked up): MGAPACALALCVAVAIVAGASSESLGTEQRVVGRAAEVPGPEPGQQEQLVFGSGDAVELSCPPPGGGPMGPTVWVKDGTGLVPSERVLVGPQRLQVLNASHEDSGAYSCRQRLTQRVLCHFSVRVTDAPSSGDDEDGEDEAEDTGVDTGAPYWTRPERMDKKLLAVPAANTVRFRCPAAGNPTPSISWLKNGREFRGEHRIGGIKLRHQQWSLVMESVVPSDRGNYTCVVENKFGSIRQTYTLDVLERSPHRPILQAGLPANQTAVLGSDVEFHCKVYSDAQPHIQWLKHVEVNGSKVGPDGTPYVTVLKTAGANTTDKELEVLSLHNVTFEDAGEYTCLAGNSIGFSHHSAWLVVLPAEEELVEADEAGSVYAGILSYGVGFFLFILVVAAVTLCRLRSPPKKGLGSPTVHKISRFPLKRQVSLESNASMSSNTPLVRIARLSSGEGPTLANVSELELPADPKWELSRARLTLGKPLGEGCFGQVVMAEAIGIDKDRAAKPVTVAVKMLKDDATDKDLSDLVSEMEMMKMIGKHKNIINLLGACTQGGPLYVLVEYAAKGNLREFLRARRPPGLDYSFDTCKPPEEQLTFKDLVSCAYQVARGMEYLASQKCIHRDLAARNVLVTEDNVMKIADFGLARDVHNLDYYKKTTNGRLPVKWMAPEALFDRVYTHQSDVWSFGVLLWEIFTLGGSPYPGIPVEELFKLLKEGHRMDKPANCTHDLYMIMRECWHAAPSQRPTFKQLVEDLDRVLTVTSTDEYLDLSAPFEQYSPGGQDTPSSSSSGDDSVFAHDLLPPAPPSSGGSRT

| Sequence | phosphorylation enrichment |
| --- | --- |
| MRALIYNSSTA [PLEKHA7_Y243] | 0.493 |
| ILTLKYPIELG [ACTA1_Y71_H75L] | 0.601 |
| QDEHGYIFRCF [HSPB1_Y133_S135F] | 1.31 |
| LSGFGYRLSDQ [PDCD6_Y124] | 0.76 |
| LEDDVYRKTCT [XPA_Y257_M256V] | 2.23 |
| RGNMFYENSFA [EGFR_Y113_YF] | 0.744 |
| CNPLRYPTIMI [OR6K6_Y160] | 0.84 |
| SLLTDYSPQLQ [OTC_Y345] | 0.546 |
| LIQRNYKLAAQ [ALPK2_Y1975] | 0.962 |
| ILTLKYPIEHG [ACTA1_Y71] | 0.592 |
| ESSKAYERALS [TTC37_Y1074] | 0.476 |
| CSSPTYRDCLQ [LARGE2_Y682_R677C] | 0.738 |
| YSMGCYEIYLG [HMGCL_Y198_S201Y] | 2.19 |
| QGIYGYHHYMQ [UFSP2_Y287] | 1.52 |
| KSPDSYQKILL [ATM_Y1415] | 0.451 |
| PRLMLYNPTTF [EGFR_Y270_P266R_YF] | 1.04 |
| RRVPVYGGRGA [QDPR_Y16_L14P] | 0.627 |
| TEQDPYNNIVR [MMUT_Y364] | 0.601 |
| SHTPSYCDESL [RITA1_Y109] | 0.516 |
| HYPDVYAREQL [ALX3_Y181] | 0.58 |
| VCHELYNAIRD [PBRM1_Y54_T56A] | 0.702 |
| KSSDVYVSFDC [SORL1_Y136_Y141C_YF] | 1.61 |
| KILPEYLSNWT [AIFM1_Y347] | 0.673 |
| TVQVAYFTMMM [SPATA17_Y83_YF] | 1.17 |
| IGNGFYFRVFS [MYBPC3_Y1136_YF] | 0.756 |
| EQQNMYRLKVL [ABCC6_Y372] | 0.545 |
| QRIYQYIRSRF [DYRK1B_Y273_Q275R] | 0.818 |
| YETSHYPASPD [CTNND2_Y1217] | 0.626 |
| APEVIYATPGA [ABLtide_2014] | 0.868 |
